Measured values published in patent US20260028421A1 (JIANGSU HENGRUI PHARMACEUTICALS, published 2026).
Like-named read-outs stand apart in the source and are kept apart here.

Legend:
hGUCY2C ECD-His [1] = target: T1, hGUCY2C ECD-His (human, UniProt P25092 24-430); test: SPR Biacore, antibody captured
T1 construct: also called human GUCY2C protein
Excerpt: To test the affinity of the GUCY2C monoclonal antibodies of the present disclosure for GUCY2C, in this test example, the instruments Biacore 8K and Biacore T200 were used to detect the ability of the antibodies to bind to hGUCY2C-ECD-His (SEQ ID NO: 3). The specific method is as follows: The antibody was affinity-captured using a Protein A biosensor chip conjugated with an anti-human antibody, then a solution containing GUCY2C Protein flowed on the surface of the chip, and reaction signals were detected in real time with an instrument to obtain association and dissociation curves. After dissociation was completed for each cycle, the biosensor chip was washed with 10 mM glycine-hydrochloric acid (pH 1.5) for regeneration. Data fitting was performed using a 1:1 model.

[2] = target: T2, Human GUCY2C protein on cells (HCT116/hGUCY2C, HT-55, T84, LS1034, LS174T) (human, UniProt P25092 24-1073); test: flow cytometry on HCT116/hGUCY2C cells, PE anti-human IgG Fc secondary antibody
T2 construct: also called GUCY2C on the cell surface

hGUCY2C ECD-His [3] = target: T1, hGUCY2C ECD-His; test: competition ELISA, row antibody coated; competitor 146 L1H1-biotinylated
hGUCY2C ECD-His [4] = target: T1, hGUCY2C ECD-His; test: competition ELISA, row antibody coated; competitor P3-C7 L7H1-biotinylated
hGUCY2C ECD-His [5] = target: T1, hGUCY2C ECD-His; test: competition ELISA, row antibody coated; competitor 81 L3H1-biotinylated
[6] = target: T2, Human GUCY2C protein on cells …; test: flow cytometry on HCT116/hGUCY2C cells, PE anti-human IgG Fc secondary antibody; remark: listed apart in the source
hGUCY2C ECD-His [7] = target: T1, hGUCY2C ECD-His; test: competition ELISA, row antibody coated; competitor 1608-biotinylated
[8] = target: T2, Human GUCY2C protein on cells …; test: flow cytometry on HCT116/hGUCY2C cells, PE anti-human IgG Fc secondary antibody; remark: listed apart in the source

| Binder | Kd (hGUCY2C ECD-His [1]) [nM] | koff (hGUCY2C ECD-His [1]) [s⁻¹] | kon (hGUCY2C ECD-His [1]) [M⁻¹ s⁻¹] | EC50 (read off the curve) [2] [nM] | relative competition coefficient (hGUCY2C ECD-His [3]) | relative competition coefficient (hGUCY2C ECD-His [4]) | relative competition coefficient (hGUCY2C ECD-His [5]) | EC50 (read off the curve) [6] [nM] | relative competition coefficient (hGUCY2C ECD-His [7]) | EC50 (read off the curve) [8] [nM] |
| --- | --- | --- | --- | --- | --- | --- | --- | --- | --- | --- |
| P3-F6 CHI (antibody, human IgG1, kappa, V domains shown, chimeric) VH: EVQLQQSGPELVKPGASVKISCKASGYTFTDYYMNWVKQSHGKSLEWIGDINPNNGGTSYNQKFKGKATLTVDKSSSTAYMELRSLTSEDSAVYYCARKTWLPYASVYWGQGTSVTVSS VL: DVVMTQTPLSLPVSLGDQASISCRSSQSLVHSNGNTYLHWYLQKPGQSPKLLIYKVSNRFSGVPDRFSGSGSGTDFTLKISRVEAEDLGVYFCSQSTHVPPYTFGGGTKLEIKR | 37 | 0.000245 | 6610 | ~2 | – | – | – | – | – | – |
| 146 L1H1 (antibody, human IgG1, kappa, V domains shown, humanized, human IgG1/kappa) VH: EFQLVQSGAEVKKPGASVKVSCKASGYSFTDYNMNWVRQAPGQRLEWMGLINPKYGTTNYNQKFKGRVTLTVDQSSSTAYMELSSLRSEDTAVYYCARDNYPAWFAYWGQGTTVTVSS VL: EIVLTQSPATLSLSPGERATLSCSASSSLNYMYWYQQKPGSSPRPWIYRTSQLASGVPARFSGSGSGTDYTLTISSLEPEDFAVYYCQQYHSYPPTFGGGTKVEIKR | 0.92 | 0.000117 | 127000 | – | 100 | 4 | 99 | ~2 | 12 | – |
| 1608 (antibody, human IgG1, kappa, V domains shown) VH: EVQLVESGGGLVQPGGSLRLSCAASGFTFSSYWMHWVRQAPGKGLEWIGEIKPSNELTNVHEKFKDRFTISVDKAKNSAYLQMNSLRAEDTAVYYCTRTITTTEGYWFFDVWGQGTLVTVSS VL: DIQLTQSPSSLSASVGDRVTITCRASESVDYYGSSLLQWYQQKPGKAPKLLIYAASKLASGVPSRFSGSGSGTDFTLTISSLQPEDFATYYCQQTRKAYTFGQGTKLEIKR | – | – | – | ~0.3 | 12 | 3 | 6 | ~0.3 | 100 | ~0.3 |
| P3-B4 CHI (antibody, human IgG1, kappa, V domains shown, chimeric) VH: QIQLVQSGPELKKPGEIVKISCKASGYTFTTYGMSWVKQAPGKGLKWMGWINTYSGVPTYADDFKGRFAFSLETSASTAYLQINNLKNEDTATYFCARRAGSSLYYYAMDYWGQGTSVTVSS VL: QIVLTQSPAIMSASPGEKVTMTCSASSSVSYMLWYQQKSGTSPKRWIYDTSKLASGVPARFSGSGSGTSYSLTISSMEAEDAATYYCQQWSSNPPTFGGGTKLEIKR | 8.28 | 0.000214 | 25800 | ~2 | – | – | – | – | – | – |
| 81 L3H1 (antibody, human IgG1, kappa, V domains shown, humanized, human IgG1/kappa) VH: EVQLVQSGAEVKKPGASVKVSCKASGYTFTDHNMNWVKQAPGQRLEWMGVMNPKFGTINYNQKFKDKATITRDTSASTAYMELSSLRSEDTAVYYCARDNYPNYFDYWGQGTTVTVSS VL: DIQLTQSPSFLSASPGDRVTITCSASSSVNYMYWYQQKPGSSPKSWIYRTSNLASGVPSRFSGSGSGTEYTLTISSLQPEDFATYYCQQYHDYPPTFGGGTKVEIKR | 0.29 | 5.19e-05 | 181000 | – | 81 | 3 | 100 | ~1 | 11 | – |
| P3-C7 L7H1 (antibody, human IgG1, kappa, V domains shown, humanized, human IgG1/kappa) VH: EVQLVQSGAEVKKPGASVKVSCKASGYTFTDHYIHWVRQAPGQGLEWMGVINPYNDGATYNQKFKGRVTMTVDKSTSTVYMELSSLRSEDTAVYYCARPPRAYGNYAGYWGQGTTVTVSS VL: DVVMTQTPLSLPVTPGEPASISCRSSQSLVHSNQNTYLHWYLQKPGQSPQLLIYKVSNRFSGVPDRFSGSGSRTDFTLKISRVEAEDVGVYYCSQSTHVPYTFGGGTKVEIKR | 7.77 | 0.000186 | 23900 | – | 13 | 100 | 6 | ~2 | 10 | – |
